Results on 1 molecule are retold here after patent publication US20140018302A1 (published 2014).

In the assay the target is recombinant HDM2 17-125 (UniProt Q00987 17-125). In words: FP competition with FITC-SAH-p53-8; FIG. 2B; axis prints HDMX, legend says HDM2.

One may read the IC50 as the midpoint of a concentration-inhibition curve.

B1: SAH-p53-8 (peptide)
peptide: QSQQTFXNLWRLLXQN
modifications: not fully specified; amino acids at positions S20 and P27 (p53 numbering) replaced with synthetic olefinic residues joined by an i, i+7 hydrocarbon staple; acetyl-capped N-terminus in the competition FP assay
For the molecule B1, the IC50 was 216 nM.
